Experimental data as given in paper PMC8423243.
Where two headings read alike, the source gives them in different places.

Substance	other (N-glycosylation at N241)	other (N-glycosylation at N289)	other (N-glycosylation at N611)
BG505 Env S241N variant (SOSIP and virus): S241N (PNGS knock-in; direction given for knock-in relative to parental BG505)	abolishes		
BG505 Env P291T (virus) / P291S (SOSIP) variant: P291T (PNGS knock-in at N289; direction given for knock-in relative to parental BG505)		abolishes	
BG505 Env S241N variant (SOSIP and virus): S241N + P291T (double PNGS knock-in; direction given for knock-in relative to parental BG505)	abolishes		
BG505 Env (BG505 SOSIP trimer and BG505 T332N virus): deletion of the N611 PNGS (N611A virus)			no change
BG505 Env (BG505 SOSIP trimer and BG505 T332N virus): N611A (virus)			increases
BG505 Env P291T (virus) / P291S (SOSIP) variant: P291T and S241N + P291T (PNGS knock-ins; direction given for knock-in relative to parental BG505)		decreases	
